Source: patent publication US20180280504A1, “GLYCAN-INTERACTING COMPOUNDS AND METHODS OF USE” (SIAMAB THERAPEUTICS, INC., priority 2014, published 2018)

How the values were obtained:
[1] = E3-STn allograft model, complete blood count (CBC); assay type: in vivo, mouse; design: White blood cells Level: unit not given here; conditions: CBC at end of study, 5 mice
Experimental: At the end of the study, a complete blood count (CBC) was obtained for 5 mice treated with antibody as well as 3 mice treated with vehicle control. Blood was collected from all mice via terminal cardiac puncture and processed for plasma. Blood was placed in EDTA microtainer tubes (BD & Co., Franklin Lakes, N.J.) then centrifuged. Plasma layers were then removed and snap frozen in cryo vials (Thermo-Fisher Scientific, Rochester, N.Y.) and stored at −80° C. until analysis. Analysis was carried out to look for levels of a variety of factors.

[2] = Glycan array, 9-O-acetylated GcSTn; assay type: binding; conditions: glycan microarray, Cy3 anti-mouse IgG
Experimental: Optimized glycan arrays comprise 71 chemically synthesized and well-defined glycans, most of which comprise Neu5Ac and Neu5Gc glycan pairs.
300 ml of epoxy blocking buffer is prepared by combining 15 ml of 2 M Tris buffer (pH 8) with 0.9 ml of 16.6 M ethanolamine and 284.1 ml of distilled water. The solution was brought to a final pH of 9.0 with HCl. The solution is filtered using a 0.2 μM nitrocellulose membrane. The epoxy buffer solution as well as 1 L of distilled water are pre-warmed to 50° C. Glass slides are arranged in a slide holder and quickly submerged in a staining tub with the warmed epoxy blocking buffer. Slides are incubated in the epoxy blocking buffer for 1 hour at 50° C. with periodic shaking to deactivate epoxy binding sites. Next, slides are rinsed and blocked with PBS with 1% OVA at 25° C. for one hour. Serum samples with polyclonal antibodies (1:1000) or purified monoclonal antibodies (1 ug/mL), are diluted in PBS with 1% OVA and added to the glycan array for one hour at 25° C. After extensive washing, binding of antibodies are detected by incubating glycan microarray slides with Cy3-conjugated anti-mouse IgG (Jackson Immunoresearch, West Grove, Pa.) for one hour. Slides are then washed extensively, dried and scanned with a Genepix 4000B scanner (Laser at 100%; gain at 350; 10 μm pixels). […]

[3] = MDA-MB-231-STn xenograft model, percent body weight change; assay type: in vivo, mouse; conditions: 5 mg/kg i.p. once weekly
Text: (§1) To evaluate antibody drug conjugates (ADCs) as single agents in an MDA-MB-231-STn Human Breast Tumor Xenograft model, 40 ICR SCID female mice age range 6-8 weeks were randomly separated into four separate groups, one vehicle control and three ADC treatments, then maintained individually with food/water ad libitum (see the following Table).
Animals were inoculated in the subcutaneous right flank with 5×10^6 breast tumor cells (MDA-MB-231-STn) in matrigel, mean tumor size was 175-225 mm^3 at study initiation. Animals were given either vehicle or antibody drug conjugates (5 mg/kg) by intraperitoneal injection once weekly. Tumor volume and percent body weight change were determined once weekly until study termination. The study was terminated when the tumor in the vehicle control animal reached a mean tumor weight ≥1500 mm^3. SE refers to “standard error.”

[4] = tested on: COLO-205 Human Colon Adenocarcinoma Tumor Xenograft; assay: COLO-205 human colon adenocarcinoma xenograft model, tumor volume; assay type: in vivo, mouse; conditions: 5 mg/kg i.p. once weekly
Text: as §1, with “COLO-205 Colon AdenocarcinomaTumor Xonograft” for “MDA-MB-231-STn Human Breast Tumor Xenograft”, “athymic nude” for “ICR SCID”
(§2) Animals were inoculated in the subcutaneous right flank with 5×10^6 colon adenocarcinoma tumor cells (COLO-205) in matrigel, mean tumor size was 175-225 mm^3 at study initiation. Animals were given either vehicle or one of the antibody drug conjugates (5 mg/kg) by intraperitoneal injection once weekly. Tumor volume and percent body weight change were determined once weekly until study termination. The study was terminated when the tumor in the vehicle control animal reached a mean tumor weight >1500 mm^3. SE refers to “standard error.”

[5] = COLO-205 xenograft model, percent body weight change; assay type: in vivo, mouse; conditions: 5 mg/kg i.p. once weekly
Text: as §1, with “COLO-205 Colon AdenocarcinomaTumor Xonograft” for “MDA-MB-231-STn Human Breast Tumor Xenograft”, “athymic nude” for “ICR SCID”
as §2

B1: 7G9: anti-STn mouse monoclonal, IgG2b κ, from mouse #4407; VH SEQ ID NO: 12, VL SEQ ID NO: 9 (antibody, V domains shown)
VH: QVQLKESGPGLVAPSQNLSITCTVSGFSLTSYGVNWVRQPPGKGLEWLGVIWGDGSTNYHSALISRLIISKENSKSQVFLKLNSLQTNDTATYYCTKGFVYWGQGTLVTVSA
VL: QIVLTQSPAIMSASPGEKVTMTCSASSSVSYMHWYQQKSGTSPKRWIFDTSKLASGVPARFSGSGSGTSYSLTISSMEAEDAATYYCQQWSSNLLTFGAGTKLELK
Question: Which “% Lymphocytes Level” value [1] does the source give for B1 here?
Answer: 44.4%

Question: What about the “% Monocytes Level” value [1] of the same molecule?
Answer: 4.6%

Question: What about the “% Neutrophils (Segmented) Level” value [1] of the same molecule?
Answer: 51.0%

Question: And the “Hematocrit Level” value [1]?
Answer: 46.9%

Question: What about the “Hemoglobin Level” value [1] of the same molecule?
Answer: 16.0 g/dL

Question: And the “Lymphocytes Level” value [1]?
Answer: 5.6 10^9/L

Question: And the “Mean Corpuscular Hemoglobin Concentration Level” value [1]?
Answer: 34.2 g/dL

Question: And the “Mean Corpuscular Hemoglobin Level” value [1]?
Answer: 16.2 pg

Question: And the “Mean Corpuscular Volume Level” value [1]?
Answer: 47.4 fL

Question: And the “Mean platelet volume Level” value [1]?
Answer: 7.4 fL

Question: What about the “Monocytes Level” value [1] of the same molecule?
Answer: 0.7 10^9/L

Question: What about the “Neutrophils Level” value [1] of the same molecule?
Answer: 7.6 10^9/L

Question: What about the “Platelet Cell Distribution Width Level” value [1] of the same molecule?
Answer: 32.2%

Question: And the “Platelet count Level” value [1]?
Answer: 712.2 10^3

Question: And the “Red Cell Distribution Width Level” value [1]?
Answer: 19.0%

Question: And the “Red blood cells Level” value [1]?
Answer: 9.9 10^6/L

Question: What about the “White blood cells Level” value [1] of the same molecule?
Answer: 13.9

B2: 18C7: anti-STn mouse monoclonal, IgG2c κ, from mouse #4436; VH SEQ ID NO: 4, VL SEQ ID NO: 5 (antibody, V domains shown)
VH: QVTLKESGPGILQPSQTLSLTCSFSGFSLSTFGMGVGWIRQPSGKGLEWLAHIWWDDDKYYNPALKSRLTISKDTSKNQVFLKIANVDTADTATYYCARIAYYYGSERDYWGQGTTLTVSS
VL: QIVLTQSPAIMSASPGEKVTMTCSASSSISYMHWYHQKPGTSPKRWIYDTSKLASGVPARFSGSGSGTSYSLTISSMEAEDAATYYCHQRSSYTFGGGTKLEIKR
Question: For B2, which “mean fluorescence intensity, Neu5,9Ac5Gc-α2,6-GalNAc” value [2] is on record?
Answer: about 2,000

B3: S3F: 3F1 variable domains combined with IgG2a constant domains; heavy chain SEQ ID NO: 63, light chain SEQ ID NO: 64 (antibody)
heavy: QVQLQQSDAELVKPGASVKISCKASGYTFTDHAIHWVKQKPEQGLDWIGYISPGNGDIKYNEKFKDKVTLTADKSSSTACMHLNSLTSEDSAVYFCKRSLLALDYWGQGTTLTVSSAKTTAPSVYPLAPVCGDTTGSSVTLGCLVKGYFPEPVTLTWNSGSLSSGVHTFPAVLQSDLYTLSSSVTVTSSTWPSQSITCNVAHPASSTKVDKKIEPRGPTIKPCPPCKCPAPNLLGGPSVFIFPPKIKDVLMISLSPIVTCVVVDVSEDDPDVQISWFVNNVEVHTAQTQTHREDYNSTLRVVSALPIQHQDWMSGKEFKCKVNNKDLPAPIERTISKPKGSVRAPQVYVLPPPEEEMTKKQVTLTCMVTDFMPEDIYVEWTNNGKTELNYKNTEPVLDSDGSYFMYSKLRVEKKNWVERNSYSCSVVHEGLHNHHTTKSFSRTPGK
light: DIVMTQSHKFMSTSVGDRVSITCKASQDVGTNIAWYQQKPGRSPKVLIYSASTRHTGVPDRFTGSGSGTDFTLTISNVQSEDLTDYFCQQYSSFPLTFGVGTKLELKRADAAPTVSIFPPSSEQLTSGGASVVCFLNNFYPKDINVKWKIDGSERQNGVLNSWTDQDSKDSTYSMSSTLTLTKDEYERHNSYTCEATHKTSTSPIVKSFNRNEC
Question: Which results are given for B3?
Answer: body weight at study termination [3]: overall increase in body weight; Percent Body Weight Change ([3]; study day 1): 0%; Percent Body Weight Change ([3]; study day 4): −0.01%; Percent Body Weight Change ([3]; study day 8): −1.29%; Percent Body Weight Change ([3]; study day 10): −1.36%; Percent Body Weight Change ([3]; study day 15): −1.09%; Percent Body Weight Change ([3]; study day 18): −0.51%; Percent Body Weight Change ([3]; study day 23): 1.49%; Percent Body Weight Change ([3]; study day 25): 2.17%; tumor volume course after day 8 ([4]; athymic nude mice): continued to show rapid increase in volume; Tumor Volume ([4]; study day 1): 182.8 mm^3; Tumor Volume ([4]; study day 5): 315.2 mm^3; Tumor Volume ([4]; study day 8): 448.8 mm^3; Tumor Volume ([4]; study day 10): 543.1 mm^3; Tumor Volume ([4]; study day 15): 655.3 mm^3; Tumor Volume ([4]; study day 19): 850.6 mm^3; Tumor Volume ([4]; study day 22): 938.2 mm^3; Tumor Volume ([4]; study day 25): 1001.4 mm^3; body weight course after initial drop [5]: remained low; Percent Body Weight Change ([5]; study day 1): 0%; Percent Body Weight Change ([5]; study day 5): 1.18%; Percent Body Weight Change ([5]; study day 8): −5.01%; Percent Body Weight Change ([5]; study day 10): −2.53%; Percent Body Weight Change ([5]; study day 15): −5.22%; Percent Body Weight Change ([5]; study day 19): −1.33%; Percent Body Weight Change ([5]; study day 22): −0.91%
